Each block holds one binder with its values, some of them ahead of it.
Tests used:
rat Tie2ECD.flag = target: T1, rat Tie2ECD.flag (rat, UniProt A0ABK0L6J5 19-740); test: Biacore, hIgG captured, 25C
T1 construct: extracellular domain; also called rTie2.flag; not shown: C-terminal Flag tag
Protocol: (§1) Monovalent affinities of selected anti-Tie2 hIgGs were determined using a Biacore T200 instrument (GE Life Sciences). Anti-humanFc was covalently immobilized on a Series S CM5 Biacore sensor chip to enable non-covalent capture of anti-Tie2 antibodies and binding of human or rat Tie2ECD.flag was monitored in real time at 25° C. using a multi-cycle kinetics experiment format. Between cycles, the surface was regenerated with 3 M MgCl₂. Monovalent affinities were determined by kinetic analysis, using Biacore Evaluation Software (GE Life Sciences) to fit a 1:1 binding model to the data.

human Tie2ECD.flag = target: T2, human Tie2ECD.flag (human, UniProt Q02763 23-748); test: Biacore, hIgG captured, 25C
T2 construct: also called hTie2.flag; not shown: C-terminal Flag tag
T2 sequence (Q02763 23-748 limits assumed): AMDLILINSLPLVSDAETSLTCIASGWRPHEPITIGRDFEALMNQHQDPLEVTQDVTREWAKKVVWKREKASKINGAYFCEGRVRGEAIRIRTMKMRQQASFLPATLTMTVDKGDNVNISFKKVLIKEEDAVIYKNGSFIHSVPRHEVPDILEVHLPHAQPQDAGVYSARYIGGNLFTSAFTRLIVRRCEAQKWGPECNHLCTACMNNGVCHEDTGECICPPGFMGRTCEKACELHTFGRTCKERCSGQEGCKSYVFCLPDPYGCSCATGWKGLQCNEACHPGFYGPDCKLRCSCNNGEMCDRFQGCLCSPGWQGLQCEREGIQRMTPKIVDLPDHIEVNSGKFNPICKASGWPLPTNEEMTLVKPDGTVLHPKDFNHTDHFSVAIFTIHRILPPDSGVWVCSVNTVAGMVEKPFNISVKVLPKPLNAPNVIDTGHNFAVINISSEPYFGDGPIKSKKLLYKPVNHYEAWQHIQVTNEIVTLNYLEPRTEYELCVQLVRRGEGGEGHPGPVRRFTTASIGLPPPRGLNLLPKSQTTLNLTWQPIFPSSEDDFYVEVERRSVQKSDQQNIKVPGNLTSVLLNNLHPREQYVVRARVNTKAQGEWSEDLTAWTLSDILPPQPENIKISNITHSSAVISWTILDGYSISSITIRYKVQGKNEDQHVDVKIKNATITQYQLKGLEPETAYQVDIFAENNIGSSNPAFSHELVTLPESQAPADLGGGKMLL
Protocol: as §1

mouse Tie2 ECD5 = target: T3, mouse Tie2 ECD5 (mouse, UniProt Q02858 23-442, limits assumed); test: ELISA: mouse Tie2 ECD5 construct immobilized, serial dilutions of IgG, anti-huFc-HRP
T3 construct: domain: ECD5 (Ig1, Ig2, EGF and Ig3 domains); also called mECD5
T3 sequence (Q02858 23-442 limits assumed): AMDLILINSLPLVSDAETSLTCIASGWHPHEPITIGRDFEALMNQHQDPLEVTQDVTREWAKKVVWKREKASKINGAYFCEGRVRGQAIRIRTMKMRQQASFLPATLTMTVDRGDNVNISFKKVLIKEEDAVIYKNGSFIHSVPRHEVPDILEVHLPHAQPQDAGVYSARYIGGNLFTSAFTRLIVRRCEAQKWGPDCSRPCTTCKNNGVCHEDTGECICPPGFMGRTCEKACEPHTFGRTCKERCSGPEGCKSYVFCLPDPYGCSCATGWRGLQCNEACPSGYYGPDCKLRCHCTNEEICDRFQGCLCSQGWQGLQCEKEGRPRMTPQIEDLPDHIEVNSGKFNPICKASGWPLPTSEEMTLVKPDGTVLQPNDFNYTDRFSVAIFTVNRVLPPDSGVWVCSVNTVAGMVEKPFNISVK
From the text: (§2) Plates were washed and detected with anti-huFC-conjugated HRP secondary antibody using the methods above.

omalizumab = target: T4, omalizumab; test: phage ELISA
T4 construct: Used as irrelevant coated protein; also called irrelevant Fc-containing protein; not shown: the constant regions

[1] = target: T5, human Tie2 ECD5 (extracellular domain without the FN3 domains; Ig1, Ig2, EGF and Ig3 domains) (human, UniProt Q02763 23-442); test: ELISA: human Tie2 ECD5 construct immobilized, serial dilutions of IgG, anti-huFc-HRP
T5 construct: whole entry named; also called huECD5; hECD5; not shown: C-terminal carrier of the coated construct (hIgG1 Fc or Flag tag)
T5 sequence (Q02763 23-442 limits assumed): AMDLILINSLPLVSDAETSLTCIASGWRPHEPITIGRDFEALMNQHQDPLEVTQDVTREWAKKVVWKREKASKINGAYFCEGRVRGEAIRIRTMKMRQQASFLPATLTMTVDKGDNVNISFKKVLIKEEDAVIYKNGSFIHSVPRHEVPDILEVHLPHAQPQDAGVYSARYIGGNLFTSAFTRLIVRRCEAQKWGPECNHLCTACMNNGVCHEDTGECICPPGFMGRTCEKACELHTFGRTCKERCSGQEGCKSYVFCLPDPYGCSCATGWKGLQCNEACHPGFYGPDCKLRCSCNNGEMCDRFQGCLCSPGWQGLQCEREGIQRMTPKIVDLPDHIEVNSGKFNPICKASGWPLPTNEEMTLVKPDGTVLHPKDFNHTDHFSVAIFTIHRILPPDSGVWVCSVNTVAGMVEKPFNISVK
From the text: as §2

human Tie1 = target: T6, human Tie1 (human, UniProt P35590 22-759); test: ELISA: human Tie1 immobilized, serial dilutions of IgG, anti-huFc-HRP
T6 construct: extracellular domain
T6 sequence (looked up): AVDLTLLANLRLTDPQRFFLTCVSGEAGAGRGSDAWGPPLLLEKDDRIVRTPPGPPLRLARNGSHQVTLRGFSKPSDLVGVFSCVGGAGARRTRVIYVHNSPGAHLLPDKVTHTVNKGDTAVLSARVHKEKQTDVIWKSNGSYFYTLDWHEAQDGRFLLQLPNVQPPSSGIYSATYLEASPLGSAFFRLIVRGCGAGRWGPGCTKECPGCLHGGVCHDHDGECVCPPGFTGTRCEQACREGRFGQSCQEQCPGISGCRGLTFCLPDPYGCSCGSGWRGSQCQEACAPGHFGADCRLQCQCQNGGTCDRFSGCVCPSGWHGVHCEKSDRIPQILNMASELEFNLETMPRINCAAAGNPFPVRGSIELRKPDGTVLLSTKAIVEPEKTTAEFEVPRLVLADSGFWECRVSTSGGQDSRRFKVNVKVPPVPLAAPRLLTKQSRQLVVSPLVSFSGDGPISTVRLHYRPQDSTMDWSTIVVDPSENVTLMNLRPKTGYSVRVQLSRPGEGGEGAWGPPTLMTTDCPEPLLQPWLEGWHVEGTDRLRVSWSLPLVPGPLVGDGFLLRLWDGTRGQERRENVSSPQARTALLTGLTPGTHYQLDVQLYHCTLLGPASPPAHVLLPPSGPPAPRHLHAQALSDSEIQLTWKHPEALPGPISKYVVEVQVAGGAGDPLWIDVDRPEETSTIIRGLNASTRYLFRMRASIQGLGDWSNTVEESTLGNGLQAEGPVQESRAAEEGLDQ
From the text: as §2
The binding ELISA was also used with immobilized Tie1 protein to assess Tie1 binding.

[2] = target: T7, mouse Tie2 full extracellular domain (mouse, UniProt Q02858 23-746); test: phage ELISA
T7 construct: extracellular domain; also called mFullECD
T7 sequence (Q02858 23-746): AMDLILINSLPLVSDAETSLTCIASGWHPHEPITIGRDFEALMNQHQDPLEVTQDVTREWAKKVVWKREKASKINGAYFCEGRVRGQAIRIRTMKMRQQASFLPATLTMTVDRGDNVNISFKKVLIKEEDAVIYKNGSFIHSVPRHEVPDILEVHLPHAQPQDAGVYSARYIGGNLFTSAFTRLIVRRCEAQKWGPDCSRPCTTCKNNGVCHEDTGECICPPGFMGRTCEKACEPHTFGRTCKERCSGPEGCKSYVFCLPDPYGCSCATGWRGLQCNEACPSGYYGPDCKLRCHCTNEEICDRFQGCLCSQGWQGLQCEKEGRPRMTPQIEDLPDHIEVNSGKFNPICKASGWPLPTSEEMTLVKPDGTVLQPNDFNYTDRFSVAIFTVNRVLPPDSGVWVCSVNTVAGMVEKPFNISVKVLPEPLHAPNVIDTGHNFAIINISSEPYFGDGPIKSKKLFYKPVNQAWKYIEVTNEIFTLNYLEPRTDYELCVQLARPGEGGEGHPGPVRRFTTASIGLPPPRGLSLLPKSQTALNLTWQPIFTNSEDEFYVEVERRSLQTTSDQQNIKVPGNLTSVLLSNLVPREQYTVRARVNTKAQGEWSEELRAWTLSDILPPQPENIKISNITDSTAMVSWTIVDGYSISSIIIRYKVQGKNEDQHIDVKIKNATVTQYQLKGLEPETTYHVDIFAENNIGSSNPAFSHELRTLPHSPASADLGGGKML
Protocol: Clones from the fourth round were screened for Tie2 binding and specificity by ELISA. Screening ELISAs were carried out by coating the wells of a 96-well microtiter plate with Tie2 protein or irrelevant protein at 65 ul per well (1 ug/ml in coating buffer) at 4° C. overnight. In a 96-tube plate, colonies from the fourth round were grown overnight at 37° C. in 400 ul 2YT media with 50 ug/ml carbenicillin and helper phage K07. The plate was spun down at 3000 rpm for 10 min. 30 ul of the culture supernatant was added with 60 ul of ELISA buffer (PBS with 0.5% BSA and 0.05% Tween20) to the Tie2-coated plate and incubated at room temperature for 1 hr. Plates were washed with PBS—0.05% Tween20 and 100 ul/well of horseradish peroxidase (HRP)-conjugated anti-M13 antibody (1/5000 dilution in PBS plus 0.5% BSA and 0.05% Tween20) at room temperature for 30 min (Sidhu et al., supra). The wells were washed with PBS—0.05% Tween20 prior to 100 ul/well of a 1:1 ratio of 3,3′,5,5′-tetramethylbenzidine (TMB) peroxidase substrate and Peroxidase Solution B (H₂O₂) ((Kirkegaard-Perry Laboratories (Gaithersburg, Md.)) being added per well and incubated for 5 min at room temperature. The reaction was stopped by adding 100 ul 1M phosphoric Acid (H₃PO₄) per well and the OD of wells was determined using a standard ELISA plate reader at 450 nm.

Kd (rat Tie2ECD.flag): 116 nM
Kd (human Tie2ECD.flag): 52 nM
EC50 (read off the curve) (mouse Tie2 ECD5): ~1 nM
binding result (omalizumab): no binding
EC50 (read off the curve) [1]: ~1 nM
binding result (human Tie1): no binding (tested: 200 nM)
B1: Tie2.12 (antibody, IgG1, V domains shown)
VH: EVQLVESGGGLVQPGGSLRLSCAASGFTFSSYWIHWVRQAPGKGLEWVAAISPNDGSTYYADSVKGRFTISADTSKNTAYLQMNSLRAEDTAVYYCARSRYYGQRLVYYVMDYWGQGTLVTVSS
VL: DIQMTQSPSSLSASVGDRVTITCRASQDVSTAVAWYQQKPGKAPKLLIYSASFLYSGVPSRFSGSGSGTDFTLTISSLQPEDFATYYCQQSYTTPPTFGQGTKVEIKR
notes: hIgG1 in later assays; also called Ab12

binding result [2]: binds
Kd (rat Tie2ECD.flag): 2800 nM
Kd (human Tie2ECD.flag): 822 nM
binding result (omalizumab): no binding
B2: Tie2.24 (antibody, IgG1, V domains shown)
VH: EVQLVESGGGLVQPGGSLRLSCAASGFTFTSSGISWVRQAPGKGLEWVATINPYGGDTYYADSVKGRFTISADTSKNTAYLQMNSLRAEDTAVYYCARFYRFLSSGMDYWGQGTLVTVSS
VL: B1 VL
notes: hIgG1 in later assays; also called Ab24
